# Experimental data: article PMC9027224 (Diagnostics, 2022)
# Where two headings read alike, the source gives them in different places.
# What was measured:
# [1] = design: species or system human; settings: in vivo, iv
# Excerpt: Two peripheral intravenous catheters were placed, one for tracer injection and one in the contralateral arm for withdrawal of blood samples and administration of i.v. contrast agent. Electrocardiogram and vital signs as well as safety blood samples were monitored before and following [^68Ga]Ga-NODAGA-E[c(RGDyK)]2 injection. […] Furthermore, urine was collected for pharmacokinetic analysis and dosimetry in a subset of patients (Figure 1). The activity concentration of the urine and plasma was counted on Cobra II TM Gamma Counter (Packard, CT, USA). Blood and urine samples were analyzed on a Dionex UltiMate 3000 column-switching high-performance liquid chromatography (HPLC) system with a Posi-RAM Module 4 (ThermoFisher Scientific, Waltham, MA, USA). The full blood samples were centrifuged (3500 rpm, 4 min) and the supernatant plasma was collected and filtered through a […] syringe filter prior to the HPLC analysis. The HPLC analysis consisted of an extraction step and an analytical step, as previously described. During the extraction step, the plasma samples were passed through a shim-pack XR-ODS (30 × 4.6 mm, 2.2 μm). The valves were switched, and the sample was then analyzed on an Onyx monolithic column (C18, 50 × 4.6 mm). […]
# [2] = human, in vivo
# Excerpt: Two peripheral intravenous catheters were placed, one for tracer injection and one in the contralateral arm for withdrawal of blood samples and administration of i.v. contrast agent. Electrocardiogram and vital signs as well as safety blood samples were monitored before and following [^68Ga]Ga-NODAGA-E[c(RGDyK)]2 injection. […] Furthermore, urine was collected for pharmacokinetic analysis and dosimetry in a subset of patients (Figure 1).
# [3] = design: species or system human; settings: in vivo
# Description: Dosimetry was based on the decay-uncorrected image sets from the 3 time points (10 patients) supplemented with sampled urine data (7 patients). For each patient, organ, and time point, tissue activity concentration (kBq/mL) was determined in VOIs defined on CT. Activity (per patient, organ and time) was estimated by multiplying concentration values by organ masses of the OLINDA adult phantom, normalized per injected MBq and scaled for patient weight. Time integrated activity coefficients (TIAC, unit h) for each patient and organ was determined by numerical integration and analytical extrapolation to infinity assuming only physical decay. The resulting organ TIACs were averaged over patients. All data were entered into OLINDA/EXM 2.0 software (Vanderbilt University, TN, USA and HERMES Medical Solutions, Stockholm, Sweden).
# Urine was collected immediately after each scan in pre-weighted plastic bottles. The cumulated decay-corrected activity (MBq) of the excreted urine was plotted over time for all 7 subjects and data fitted to a one-phase exponential association. […] A detailed description of the dosimetry is available in Supplementary Material (Section S2).
# testine, spleen, stomach contents, testes, thyroid, and upper large intestine. For each pa-
# tient, organ, and time-point, tissue activity concentration (kBq/mL) was calculated as the
# average of the mean values from 3 VOIs. Total activity (per patient, organ and time) was
# estimated by multiplying these average values by organ masses of the OLINDA male
# adult phantom. Activity values were normalized to 1MBq by dividing with injected
# activity and scaled with the ratio of actual patient weight to the weight of the standard
# model (73 kg). As a surrogate for red marrow activity, VOIs were drawn encompassing
# large portions of the L3–L5 vertebrae. Time integrated activity coefficients (TIAC, for-
# merly known as residence time; unit h) for each patient and organ was determined by nu-
# merical integration up to the third (last) data point and analytical extrapolation to infinity
# assuming only physical decay. Piecewise linearity was assumed from time zero up to the
# second data point and a mono-exponential was used between the second and third data
# points. The resulting organ TIACs were averaged over patients. All data were entered into
# OLINDA/EXM 2.0 software (Vanderbilt Universi ty, and HERMES Medical Solutions).
# Urine was collected immediately after each scan in pre-weighted plastic bottles and
# for each individual voiding the weight (volume) was measured and a 500 μL sample was
# drawn for activity measurement in a calibrated gamma well counter (Cobra II TM,
# Gamma Counting Systems; PACKARD, Meriden, CT, USA).The cumulated decay cor-
# rected activity (in MBq) of the excreted urine, normalized to 1 MBq of injection, was plot-
# ted over time (in Excel) for all 7 subjects and data fitted to a one phase exponential asso-
# ciation (exponential growing towards a limit). The resulting limit and half-life were used
# as input to the bladder voiding model of OLINDA, yielding the TIAC for bladder con-
# tents. In concordance with the actual setup a bladder voiding interval of 1 hour was se-
# The value for “remainder tissue” was calculated as the total area (in h) for 1 MBq
# minus the sum of the organ-specific values (except bladder) minus the value passed to
# urine (based on the fitted model parameters). The fraction of the latter that is attributed to
# the bladder depends on the voiding interval.
# The output from OLINDA consists of absorbed doses for organs and effective dose
# with weight factors according to ICRP 103 [3]. […]
# 3. The 2007 Recommendations of the International Commission on Radiological Protection. ICRP publication 103. Ann ICRP
# [4] = biological target: integrin subtype αvβ3; settings: in vitro; unlabelled NODAGA-E[c(RGDyK)]2; ref Bentsen et al., unpublished data; read-out: affinity (KD); cited from earlier work
# Excerpt: A large number of PET tracers with the RGD motif have been developed and tested preclinically. However, only a few have reached testing in clinical trials, and none have yet been employed for routine clinical use. The clinical translation of first-generation integrin-targeting PET tracers with ^18F, e.g., ^18F-Galacto-RGD, was hampered by complex radiochemistry. Thus, several approaches to optimize the production and tracer stability as well as tumor-binding properties have been investigated. Addressing the need for assessing integrin αvβ3, our group evaluated a number of PET tracers uti ...
# [5] = in vivo; cited from earlier work
# Excerpt: (§1) A secondary objective of our study was to assess [^68Ga]Ga-NODAGA-E[c(RGDyK)]2 uptake in tumors.
# [6] = test system: head and neck squamous cell carcinoma; settings: 10 patients with head and neck squamous cell carcinoma; cited from earlier work
# Excerpt: as §1
compound,measurement,setting,value
"N=C(N)NCCC[C@@H]1NC(=O)[C@H](CCCCNC(=O)CC[C@H](NC(=O)CCC(C(=O)O)N2CCN(CC(=O)O)CCN(CC(=O)O)CC2)C(=O)NCCCC[C@@H]2NC(=O)[C@@H](Cc3ccc(O)cc3)NC(=O)[C@H](CC(=O)O)NC(=O)CNC(=O)[C@H](CCCNC(=N)N)NC2=O)NC(=O)[C@@H](Cc2ccc(O)cc2)NC(=O)[C@H](CC(=O)O)NC(=O)CNC1=O (stereo partly drawn) [[^68Ga]Ga-NODAGA-E[c(RGDyK)]2, metal not drawn]",plasma half-life,[1]; human,8.6 min
same,plasma metabolites by reversed-phase HPLC,[1],two unknown polar metabolites
same,acute or long-term effects on blood parameters or organ function,[2],No acute or long-term effects
same,"changes in vital signs, laboratory studies or electrocardiograms",[2],No significant changes
same,"Mean Absorbed Dose, Adrenals",[3],0.0245 mGy/MBq
same,"Mean Absorbed Dose, Brain",[3],0.00252 mGy/MBq
same,"Mean Absorbed Dose, Breasts",[3],0.0105 mGy/MBq
same,"Mean Absorbed Dose, Esophagus",[3],0.0112 mGy/MBq
same,"Mean Absorbed Dose, Eyes",[3],0.00929 mGy/MBq
same,"Mean Absorbed Dose, Gallbladder Wall",[3],0.0143 mGy/MBq
same,"Mean Absorbed Dose, Heart Wall",[3],0.0146 mGy/MBq
same,"Mean Absorbed Dose, Kidneys",[3],0.0627 mGy/MBq
same,"Mean Absorbed Dose, Left Colon",[3],0.0136 mGy/MBq
same,"Mean Absorbed Dose, Liver",[3],0.0279 mGy/MBq
same,"Mean Absorbed Dose, Lungs",[3],0.00792 mGy/MBq
same,"Mean Absorbed Dose, Osteogenic Cells",[3],0.0136 mGy/MBq
same,"Mean Absorbed Dose, Ovaries",[3],0.0154 mGy/MBq
same,"Mean Absorbed Dose, Pancreas",[3],0.0144 mGy/MBq
same,"Mean Absorbed Dose, Prostate",[3],0.0133 mGy/MBq
same,"Mean Absorbed Dose, Rectum",[3],0.0151 mGy/MBq
same,"Mean Absorbed Dose, Red Marrow",[3],0.015 mGy/MBq
same,"Mean Absorbed Dose, Right Colon",[3],0.0131 mGy/MBq
same,"Mean Absorbed Dose, Salivary Glands",[3],0.00996 mGy/MBq
same,"Mean Absorbed Dose, Small Intestine",[3],0.0603 mGy/MBq
same,"Mean Absorbed Dose, Spleen",[3],0.0504 mGy/MBq
same,"Mean Absorbed Dose, Stomach Wall",[3],0.0263 mGy/MBq
same,"Mean Absorbed Dose, Testes",[3],0.0192 mGy/MBq
same,"Mean Absorbed Dose, Thymus",[3],0.011 mGy/MBq
same,"Mean Absorbed Dose, Thyroid",[3],0.0663 mGy/MBq
same,"Mean Absorbed Dose, Total Body",[3],0.0133 mGy/MBq
same,"Mean Absorbed Dose, Urinary Bladder Wall",[3],0.126 mGy/MBq
same,"Mean Absorbed Dose, Uterus",[3],0.018 mGy/MBq
same,effective dose,[3],0.0218 mSv/MBq
same,effective dose (radiation exposure) at injected activity of 200 MBq,[3],4.4 mSv
same,kidney radiation,[3],0.063 mGy/MBq
same,"radiation dose, kidneys",[3],0.063 mSv/MBq
same,"radiation dose, thyroid",[3],0.066 mSv/MBq
same,"radiation dose, urinary bladder wall",[3],0.126 mSv/MBq
"NODAGA-E[c(RGDyK)]2 (head to tail) [unlabelled precursor of the tracer, obtained as acetate from ABX GmbH]",Kd,[4],0.075 nM
[^68Ga]Ga-NODAGA-RGDyK [monomeric RGD PET tracer],effective dose,[5],19.8 µSv/MBq
same,kidney radiation,[5],0.046 mGy/MBq
same,mean SUVmax in the primary tumor,[6],3.9 ± 1.1
